Reference: patent US7063946B2, “Methods, reagents, kits and apparatus for protein function analysis” (Meso Scale Technologies, LLC., priority 2001, dated 2006)

B1: 4237375: IMAGE clone protein: βTRCP2 (protein)
chain: MEPDSVIEDKTIELMCSVPRSLWLGCANLVESMCALSCLQSMPSVRCLQISNGTSSVIVSRKRPSEGNYQKEKDLCIKYFDQWSESDQVEFVEHLISRMCHYQHGHINSYLKPMLQRDFITALPEQGLDHIAENILSYLDARSLCAAELVCKEWQRVISEGMLWKKLIERMVRTDPLWKGLSERRGWDQYLFKNRPTDGPPNSFYRSLYPKIIQDIETIESNWRCGRHNLQRIQCRSENSKGVYCLQYDDEKIISGLRDNSIKIWDKTSLECLKVLTGHTGSVLCLQYDERVIVTGSSDSTVRVWDVNTGEVLNTLIHHNEAVLHLRFSNGLMVTCSKDRSIAVWDMASATDITLRRVLVGHRAAVNVVDFDDKYIVSASGDRTIKVWSTSTCEFVRTLNGHKRGIACLQYRDRLVVSGSSDNTIRLWDIECGACLRVLEGHEELVRCIRFDNKRIVSGAYDGKIKVWDLQAALDPRAPASTLCLRTLVEHSGRVFRLQFDEFQIISSSHDDTILIWDFLNVPPSAQNETRSPSRTYTYISR
B2: 4419252: IMAGE clone protein: PLCγ (protein)
chain: MAGAASPCANGCGPGAPSDAEVLHLCRSLEVGTVMTLFYSKKSQRPERKTFQVKLETRQITWSRGADKIEGAIDIREIKEIRPGKTSRDFDRYQEDPAFRPDQSHCFVILYGMEFRLKTLSLQATSEDEVNMWIKGLTWLMEDTLQAPTPLQIERWLRKQFYSVDRNREDRISAKDLKNMLSQVNYRVPNMRFLRERLTDLEQRSGDITYGQFAQLYRSLMYSAQKTMDLPFLEASTLRAGERPELCRVSLPEFQQFLLDYQGELWAVDRLQVQEFMLSFLRDPLREIEEPYFFLDEFVTFLFSKENSVWNSQLDAVCPDTMNNPLSHYWISSSHNTYLTGDQFSSESSLEAYARCLRMGCRCIELDCWDGPDGMPVIYHGHTLTTKIKFSDVLHTIKEHAFVASEYPVILSIEDHCSIAQQRNMAQYFKKVLGDTLLTKPVEISADGLPSPNQLKRKILIKHKKLAEGSAYEEVPTSMMYSENDISNSIKNGILYLEDPVNHEWYPHYFVLTSSKIYYSEETSSDQGNEDEEEPKEVSSSTELHSNEKWFHGKLGAGRDGRHIAERLLTEYCIETGAPDGSFLVRESETFVGDYTLSFWRNGKVQHCRIHSRQDAGTPKFFLTDNLVFDSLYDLITHYQQVPLRCNEFEMRLSEPVPQTNAHESKEWYHASLTRAQAEHMLMRVPRDGAFLVRKRNEPNSYAISFRAEGKIKHCRVQQEGQTVMLGNSEFDSLVDLISYYEKHPLYRKMKLRYPINEEALEKIGTAEPDYGALYEGRNPGFYVEANPMPTFKCAVKALFDYKAQREDELTFIKSAIIQNVEKQEGGWWRGDYGGKKQLWFPSNYVEEMVNPVALEPEREHLDENSPLGDLLRGVLDVPACQIAIRPEGKNNRLFVFSISMASVAHWSLDVAADSQEELQDWVKKIREVAQTADARLTEGKIMERRKKIALELSELVVYCRPVPFDEEKIGTERACYRDMSSFPETKAEKYVNKAKGKKFLQYNRLQLSRIYPKGQRLDSSNYDPLPMWICGSQLVALNFQTPDKPMQMNQALFMTGRHCGYVLQPSTMRDEAFDPFDKSSLRGLEPCAISIEVLGARHLPKNGRGIVCPFVEIEVAGAEYDSTKQKTEFVVDNGLNPVWPAKPFHFQISNPEFAFLRFVVYEEDMFSDQNFLAQATFPVKGLKTGYRAVPLKNNYSEDLELASLLIKIDIFPAKENGDLSPFSGTSLRERGSDASGQLFHGRAREGSFESRYQQPFEDFRISQEHLADHFDSRERRAPRRTRVNGDNRL

What was measured:
[1] = biological target: T1, Myc peptide (SEQ ID NO: 4) (Homo sapiens, UniProt P01106); test: 96-well screen for phosphopeptide binding proteins, 7-spot IPR plates; conditions: two steps of normalization; top 9 clones
T1 construct: phosphothreonine (T58) and phosphoserine (S62) (chemical modification); purchased New England Peptide, Fitchburg Mass; host or cells: chemical synthesis
Protocol: A screen was conducted using 7-spot IPR plates. The 7 spot NPT IPR plates are described in more detail in copending Provisional Application No. 60/301,932 (entitled “Assay Plates, Reader Systems and Methods for Luminescence Test Measurements”, filed on Jun. 29, 2001, hereby incorporated by reference) and particularly in the description of Plate Type D in Example 6.1 (NPT IPR plate) and U.S. application Ser. Nos. 10/185,274 and 10/185,363, filed Jun. 28, 2002, each hereby incorporated by reference. These plates consist of a 96 wells with 7 zones (spots) for the immobilization of proteins or other reagents. Each spot was coated with BSA conjugated to either a single phosphopeptide or multiple phosphopeptides.
The plates were prepared essentially as described in example 12. The seven spots supported, respectively, the following BSA conjugates IkB, pY992, pY1068, pY1148, Myc, “A”, and “6-P”. […]
For the assay, 4 ul from TnT reaction product described above were added to the coated plate containing 50 μl of binding buffer supplemented with 50 ng/well Ru-Streptavidin. […] The ECL signals were measured using an imaging plate reader (IPR). The raw data from the IPR reader was then normalized using two steps of normalization. […] These 50 lowest values were averaged and divided into each signal for that spot to generate a signal value which could be compared readily between the peptide-conjugate spots. […]

[2] = biological target: T2, IkBa peptide [SEQ ID No. 1] (Homo sapiens, UniProt P25963); test: Phosphopeptide binding assay, peptide-BSA coated IPR plate
T2 construct: two phosphoserines in the DSGLDS motif (chemical modification); purchased New England Peptide, Fitchburg Mass; host or cells: chemical synthesis
From the text: A phosphopeptide derived from the IkBa degradation motif (SEQ ID NO: 1) and a phosphopeptide derived from c-Myc (SEQ ID NO: 4) were chemically synthesized (New England Peptide, Fitchburg Mass.) with the following sequences respectively:
A maleimide pre-activated BSA (Pierce, Pittsburgh Pa.), which contains estimated 17 active maleimide groups on the protein surface, was used as the protein carrier, and was supplied as a lyophilized preparation. Coupling of the IkBa peptide (SEQ ID NO: 1) to the pre-activated BSA was carried out with 2 mg BSA (30 nmol) and 17 equivalents of the 25 residue phosphopeptide in 400 μl PBS. The reaction was terminated with 2 mM […] after incubation at room temperature for 30 minutes. The peptide:BSA conjugate was then purified on PD-10 gel filtration column to remove uncoupled peptide and analyzed with SDS PAGE to monitor the coupling reaction. […] After coupling and purification, the column fractions containing the peptide:BSA conjugates were pooled and the protein concentration of the pooled samples was determined by BCA assay (Pierce, Pittsburgh Pa.). NaN3, (0.02%) was added to the final peptide:BSA conjugate sample for long term storage at 4° C. […]
Two βTRCP genes, βTRCP1 and βTRCP2, are present in the human genome on chromosome 5 and 10, respectively. […] The ECL signals were measured using an imaging plate reader (IPR).

EGFR = biological target: T3, EGFR (Homo sapiens, UniProt P00533); test: EGFR binding assay, bound EGFR detected with TAG labeled anti-EGFR
T3 construct: autophosphorylated tyrosines (self-phosphorylated with ATP before use); purchased Sigma Chemical Co, MO

T2 sequence (P25963 with tags, fused parts or gaps limits assumed): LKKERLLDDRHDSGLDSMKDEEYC
T1 sequence (P01106 with tags, fused parts or gaps limits assumed): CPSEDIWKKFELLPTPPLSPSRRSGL

Molecule | normalized ECL signal, Myc spot [1] | Average ECL signal, IkBa peptide [SEQ ID No. 1] [2] | ECL signal (EGFR; +EGFR) | ECL signal (EGFR; no EGFR)
B1 | 10 | 21501 |  | 
B2 |  |  | 30,389 | 2,271
